These results are taken from CN115057931A.

The test deals with human LAG-3, full length, on transfected cells (human) (UniProt P18627). Put plainly: cell-based or functional assay.
Chain of UniProt P18627 (P18627 23-525 limits assumed): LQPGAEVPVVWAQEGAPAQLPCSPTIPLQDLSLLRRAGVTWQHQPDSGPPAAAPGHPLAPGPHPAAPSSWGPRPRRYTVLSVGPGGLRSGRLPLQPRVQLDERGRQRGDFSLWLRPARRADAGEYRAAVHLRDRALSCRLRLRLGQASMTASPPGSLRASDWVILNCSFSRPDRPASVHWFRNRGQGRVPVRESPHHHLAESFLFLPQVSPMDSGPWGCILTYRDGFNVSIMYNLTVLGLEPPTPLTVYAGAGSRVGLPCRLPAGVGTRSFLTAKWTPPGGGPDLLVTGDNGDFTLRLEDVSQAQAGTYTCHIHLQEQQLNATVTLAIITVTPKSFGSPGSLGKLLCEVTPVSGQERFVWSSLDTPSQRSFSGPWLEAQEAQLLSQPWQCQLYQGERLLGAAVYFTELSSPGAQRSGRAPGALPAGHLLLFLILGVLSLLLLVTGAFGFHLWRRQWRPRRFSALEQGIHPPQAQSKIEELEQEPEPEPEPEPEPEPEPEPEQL

B1: BMK7 (antibody, from another filing, V domains shown)
VH: QVQLVESGGGVVQPGRSLRLSCVASGFTFSSYGMHWVRQAPGKGLEWVAIIWYDGSNKYYADSVKGRFTISRDNSKNTQYLQMNSLRAEDTAVYYCASVATSGDFDYYGMDVWGQGTTVTVSS
VL: EIVLTQSPATLSLSPGERTTLSCRASQRISTYLAWYQQKPGQAPRLLIYDASKRATGIPARFSGSGSGTGFTLTISSLEPEDFAVYYCQQRSNWPLTFGGGTKVEIK
For B1, the EC50(nM), IL-2 luciferase reporter in Jurkat cells expressing human LAG-3 with Raji cells and SEE turned out to be 2.65 nM.
